This note sets out measurements from patent US9580464B2, “Anti-inflammatory proteins and peptides and methods of preparation and use thereof” (ManukaMed Limited, priority 2012, dated 2017).

The nature of experiment [1]: Anti-inflammatory activity of MGO-modified proteins (results not shown). The source says:
As used herein, “anti-inflammatory capacity” is defined as the capacity to clinically reduce inflammation or the symptoms of inflammation in cellular tissue. Anti-inflammatory capacity may be determined using the phagocytosis inhibition assay (PIA) described in PCT/NZ PCT/NZ/2011/000271 or the DCFDA assay also described in PCT/NZ/2011/000271 or the anti-inflammatory capacity may also be determined by the inhibition of Cathepsin B as described in detail below.

For experiment [2], the target named is Cathepsin B from bovine spleen (Bos taurus, UniProt P07688). As to the kind of experiment: Assay for Cathepsin B activity / inhibition (Z-Lys-pNP substrate, absorbance 330 nm). Format: biochemical.
For experiment [3], the target named is Cathepsin B (Bos taurus, UniProt P07688). As to the kind of experiment: Cathepsin B digestion of MGO-modified MRJP, native PAGE. Format: biochemical. The following applies: 37° C. How it is done: Cathepsin B working reagent solution was prepared (1:50) from Cathepsin B stock solution in the buffer system containing 100 mM sodium acetate, 2 mM EDTA and 2.5 mM 2-mercaptoethanol, pH 5.0.
Cathepsin digestion was performed on selected samples of SEC fractions. Typically, 10 μl of Cathepsin B working solution was mixed with 20 μl of protein sample and digested at 37° C. for overnight. After hydrolysis, the digests were prepared for native PAGE analysis.
Samples used in the Cathepsin B digestion were: 1) Crude MRJP protein; 2) Desalted fraction (first big peak) of MGO-modified MRJP at pH 4.0 for 9 days sample; 3) Desalted fraction (first big peak) of MGO-modified MRJP in PBS (pH 7.5) for 9 days sample; 4) SEC fractions of pH 5.0 fractions; 5) SEC fractions of reaction 221.
For hydrolysis, 10 μL of a 1 mg/mL solution (10 μg) of Cathepsin B was used. Thus, a very high level of enzyme activity was employed for these experiments. Moreover, the reaction was performed over two days at 37° C. Under these conditions, we expected to see complete or near complete hydrolysis of the MRJP proteins.

Where [4] appears, read: Table 6, MRJP1 derived synthetic peptides, MGO-modified.
The mark [5] stands for this setting: Table 6, MRJP1 derived synthetic peptides, unmodified.
Setting [6] is: Table 8, MRJP5 derived synthetic peptides, MGO-modified.
The mark [7] stands for this setting: Table 8, MRJP5 derived synthetic peptides, unmodified.

As for “MGO-modified bovine serine albumin: bovine serum albumin reacted with methylglyoxal, comparison protein [reference compound]”, the “Anti-inflammatory activity” value in experiment [1] is recorded as “no anti-inflammatory activity”. For the molecule “Ac-FTK-OH (Ac-Phe-Thr-Lys-OH) [MRJP1 derived synthetic peptide]”, the “Cathepsin B remaining activity (% of control)” value in experiment [2] (setting [4]) was determined as 105.35 ± 5.73; in experiment [2] (setting [5]), 148.84 ± 16.13. The matching figures for “H-HNIR-OH [MRJP1 derived synthetic peptide]”: 103.38 ± 3.65 and 151.51 ± 0.62. As for “Ac-LLK-NH2 (Ac-Leu-Leu-Lys-NH2) [synthetic peptide derived from MRJP1, 2, 4, amidated C-terminus]”, the “Cathepsin B remaining activity (% of control)” value in experiment [2] (Table 9, additional synthetic peptides, MGO-modified) turned out to be 136.90; in experiment [2] (Table 9, additional synthetic peptides, unmodified) it was 159.34 ± 2.34. As to “Ac-MHR-OH (Ac-Met-His-Arg-OH) [MRJP5 derived synthetic peptide]”, the results for the “Cathepsin B remaining activity (% of control)” value in experiment [2] (setting [6]) and in experiment [2] (setting [7]) were 90.13 ± 17.28 and 101.26 ± 4.59, respectively.

As for “H-TNR-OH (H-Thr-Asn-Arg-OH) [MRJP5 derived synthetic peptide]”, the “Cathepsin B remaining activity (% of control)” value stood at 91.86 ± 3.50 in experiment [2] (setting [6]) and 102.61 ± 5.34 in experiment [2] (setting [7]). With “Ac-MTR-OH (Ac-Met-Thr-Arg-OH) [MRJP1 derived synthetic peptide]”, the “Cathepsin B remaining activity (% of control)” value is 118.90 ± 5.62 in experiment [2] (setting [4]) and 126.30 ± 8.12 in experiment [2] (setting [5]). For the molecule “H-MTR-OH (H-Met-Thr-Arg-OH) [MRJP1 derived synthetic peptide]”, the “Cathepsin B remaining activity (% of control)” value came to 104.39 ± 2.68 in experiment [2] (setting [4]) and 143.48 ± 2.33 in experiment [2] (setting [5]). Turning to “H-IDR-OH (H-Ile-Asp-Arg-OH) [MRJP5 derived synthetic peptide]”, the “Cathepsin B remaining activity (% of control)” value in experiment [2] (setting [6]) was 85.60 ± 5.32; in experiment [2] (setting [7]), 98.02 ± 2.54. With “Ac-CDR-OH (Ac-Cys-Asp-Arg-OH) [MRJP1 derived synthetic peptide]”, the “Cathepsin B remaining activity (% of control)” value in experiment [2] (setting [4]) turned out to be 78.51 ± 2.51; in experiment [2] (setting [5]) it was 120.52 ± 8.17.

B1: MGO-modified MRJP3: major royal jelly protein 3 chemically modified by methylglyoxal (protein, UniProt Q17060 21-544, looked up)
Major royal jelly protein 3: AAVNHQRKSANNLAHSMKVIYEWKHIDFDFGSDERRDAAIKSGEFDHTKNYPFDVDRWRDKTFVTIERNNGVPSSLNVVTNKKGKGGPLLRPYPDWSFAKYEDCSGIVSAFKIAVDKFDRLWVLDSGLVNNNQPMCSPKLLTFDLKTSKLVKQVEIPHNIAVNATTGMGELVSLAVQAIDRTNTMVYIADEKGEGLIMYQNSDDSFHRLTSNTFDYDPRYTKLTVAGESFTVKNGIYGIALSPVTNNLYYSPLLSHGLYYVDTEQFSNPQYEENNVQYEGSQDILNTQSFGKVVSKNGVLFLGLVGNSGIACVNEHQVLQRESFDVVAQNEETLQMIVSMKIMENLPQSGRINDPEGNEYMLALSNRMQKIINNDFNFNDVNFRILGANVDDLMRNTRCGRYHNQNAGNQNADNQNADNQNANNQNADNQNANKQNGNRQNDNRQNDNKQNGNRQNDNKQNGNRQNDNKQNGNRQNGNKQNDNKQNGNRQNDNKRNGNRQNDNQNNQNDNNRNDNQVHHSSKLH
modifications: methylglyoxal-modified
notes: major royal jelly protein 3 chemically modified by methylglyoxal
As for B1, the “Anti-inflammatory activity” value in experiment [1] is on record as “enhanced anti-inflammatory properties”.

B2: native hexamer form of MRJP1: unmodified major royal jelly protein 1 (SEQ ID NO: 1), about 300 kDa hexamer (protein, listed as Apis mellifera)
chain: MTRLFMLVCLGIVCQGTTGNILRGESLNKSLPILHEWKFFDYDFGSDERRQDAILSGEYDYKNNYPSDIDQWHDKIFVTMLRYNGVPSSLNVISKKVGDGGPLLQPYPDWSFAKYDDCSGIVSASKLAIDKCDRLWVLDSGLVNNTQPMCSPKLLTFDLTTSQLLKQVEIPHDVAVNATTGKGRLSSLAVQSLDCNTNSDTMVYIADEKGEGLIVYHNSDDSFHRLTSNTFDYDPKFTKMTIDGESYTAQDGISGMALSPMTNNLYYSPVASTSLYYVNTEQFRTSDYQQNDIHYEGVQNILDTQSSAKVVSKSGVLFFGLVGDSALGCWNEHRTLERHNIRTVAQSDETLQMIASMKIKEALPHVPIFDRYINREYILVLSNKMQKMVNNDFNFDDVNFRIMNANVNELILNTRCENPDNDRTPFKISIHL
modifications: native hexamer
For B2, in experiment [3], the “Hydrolysis by Cathepsin B” value is “readily degraded”.

B3: monomeric form of royalactin: unmodified monomeric MRJP1 (royalactin) (protein)
chain: NILRGESLNKSLPILHEWKFFDYDFGSDERRQDAILSGEYDYKNNYPSDIDQWHDKIFVTMLRYNGVPSSLNVISKKVGDGGPLLQPYPDWSFAKYDDCSGIVSASKLAIDKCDRLWVLDSGLVNNTQPMCSPKLLTFDLTTSQLLKQVEIPHDVAVNATTGKGRLSSLAVQSLDCNTNSDTMVYIADEKGEGLIVYHNSDDSFHRLTSNTFDYDPKFTKMTIDGESYTAQDGISGMALSPMTNNLYYSPVASTSLYYVNTEQFRTSDYQQNDIHYEGVQNILDTQSSAKVVSKSGVLFFGLVGDSALGCWNEHRTLERHNIRTVAQSDETLQMIASMKIKEALPHVPIFDRYINREYILVLSNKMQKMVNNDFNFDDVNFRIMNANVNELILNTRCENPDNDRTPFKISIHL
For the molecule B3, the “Hydrolysis by Cathepsin B” value in experiment [3] is listed as “readily degraded”.

B4: MGO-modified MRJP1: major royal jelly protein 1 (apalbumin 1) chemically modified by methylglyoxal (protein, UniProt O18330 20-432, looked up)
Major royal jelly protein 1: NILRGESLNKSLPILHEWKFFDYDFGSDERRQDAILSGEYDYKNNYPSDIDQWHDKIFVTMLRYNGVPSSLNVISKKVGDGGPLLQPYPDWSFAKYDDCSGIVSASKLAIDKCDRLWVLDSGLVNNTQPMCSPKLLTFDLTTSQLLKQVEIPHDVAVNATTGKGRLSSLAVQSLDCNTNSDTMVYIADEKGEGLIVYHNSDDSFHRLTSNTFDYDPKFTKMTIDGESYTAQDGISGMALSPMTNNLYYSPVASTSLYYVNTEQFRTSDYQQNDIHYEGVQNILDTQSSAKVVSKSGVLFFGLVGDSALGCWNEHRTLERHNIRTVAQSDETLQMIASMKIKEALPHVPIFDRYINREYILVLSNKMQKMVNNDFNFDDVNFRIMNANVNELILNTRCENPDNDRTPFKISIHL
modifications: methylglyoxal-modified
notes: major royal jelly protein 1 (apalbumin 1) chemically modified by methylglyoxal
Turning to B4, the “Anti-inflammatory activity” value in experiment [1] is listed as “enhanced anti-inflammatory properties”.
